The data set is described as follows: protein stability index of a GFP-peptide fusion (yeast GPS) (PSI 1-4); higher = more stable; sorted into four equal gates, so the index is relative within each strain. In outline:
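Mid-log yeast cultures in leucine-free medium, carrying a pooled plasmid library, were sorted into four equal gates by their GFP/Cherry fluorescence ratio. Each plasmid expressed Cherry along with GFP fused upstream of a tiled 17-residue yeast protein peptide. Plasmids recovered from each gate were PCR-amplified and Illumina-sequenced, with reads assigned to strains by barcodes. The protein stability index was obtained by summing each gate's read frequency weighted by its gate number.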

From the supplement of paper PMC9732359 come the findings set out here.

± gives the uncertainty stated by the source.

Take TTIGDTTDKNTTDDKSM [BRN1]: the protein stability index came out at 3.24 ± 0.082 (doa10∆), 3.33 ± 0.059 (pdr5∆), 3.44 ± 0.044 (san1∆) and 3.27 ± 0.043 (ubr1∆).
Sequence TTIKAIFDGNYGESDIH [YMR129W/POM152] had a protein stability index (doa10∆) of 3.23 ± 0.09, a protein stability index (pdr5∆) of 2.97 ± 0.14, a protein stability index (san1∆) of 3.58 ± 0.2 and a protein stability index (ubr1∆) of 2.89 ± 0.12.
Take TTKILGDKILGNLYSKV [YML103C/NUP188]: the protein stability index runs as follows: (doa10∆) 2.69 ± 0.079; (pdr5∆) 2.82 ± 0.08; (san1∆) 3.16 ± 0.058; (ubr1∆) 2.75 ± 0.051.
TTKMWPTNCPLRQFKTC [BRR2]: the protein stability index reads like this: (doa10∆) 2.41 ± 0.093; (pdr5∆) 2.31 ± 0.095; (san1∆) 2.01 ± 0.082; (ubr1∆) 2.34 ± 0.086.
For the sequence TTMFENTGWSCSRIIKI [RGR1], the protein stability index came to 3.61 ± 0.2 (doa10∆), 3.45 ± 0.13 (pdr5∆), 3.37 ± 0.11 (san1∆) and 3.51 ± 0.1 (ubr1∆).
With TTNLDIDLLTFQYGSRL [RPP1], the protein stability index turned out to be 3.29 ± 0.087 (doa10∆), 3.22 ± 0.073 (pdr5∆), 3.06 ± 0.092 (san1∆) and 2.98 ± 0.055 (ubr1∆).
For TTTATPHANPITHAHSL [PGD1], the protein stability index stood at 2.84 ± 0.043 (doa10∆), 3.01 ± 0.041 (pdr5∆), 2.88 ± 0.035 (san1∆) and 3.003 ± 0.029 (ubr1∆).
As for TTTMLQLFSTFDRLNGN [SSN2], the protein stability index is, setting by setting: (doa10∆) 3.08 ± 0.076; (pdr5∆) 3.12 ± 0.073; (san1∆) 3.28 ± 0.055; (ubr1∆) 3.02 ± 0.041.
As to TTVITVFLEFSLNFIPI [YML103C/NUP188], the protein stability index is 1.42 ± 0.038 (doa10∆), 1.33 ± 0.032 (pdr5∆), 1.83 ± 0.064 (san1∆) and 1.58 ± 0.023 (ubr1∆).
In the same order, the values of TTVYRYSAAKKIPDTYT [YAR002W/NUP60] are 1.34 ± 0.087, 2.07 ± 0.094, 1.42 ± 0.14 and 1.45 ± 0.077.
In the case of TVENPLRNWEELNIIPR [PRP28], the protein stability index was 1.49 ± 0.041 (doa10∆), 1.9 ± 0.054 (pdr5∆), 1.48 ± 0.086 (san1∆) and 1.77 ± 0.046 (ubr1∆).
For TVFFLIRVAETRGGASA [YJL039C/NUP192], the protein stability index runs as follows: (doa10∆) 2.18 ± 0.071; (pdr5∆) 2.08 ± 0.074; (san1∆) 2.76 ± 0.13; (ubr1∆) 2.13 ± 0.047.
For the sequence TVFLPMVGLVDPDKLKP [RPT5], the protein stability index is 2.77 ± 0.061 (doa10∆), 2.66 ± 0.079 (pdr5∆), 2.47 ± 0.058 (san1∆) and 2.44 ± 0.062 (ubr1∆).
As to TVHSKSRTRAHAQSKRE [RPL19A], the protein stability index (doa10∆) came out at 3.19 ± 0.074, the protein stability index (pdr5∆) is 3.07 ± 0.079, the protein stability index (san1∆) worked out at 2.96 ± 0.068 and the protein stability index (ubr1∆) was determined as 3.19 ± 0.069.
On the same counts, the results for TVIPEDEEIIQLHFSLL [RPO21] are 2.64 ± 0.06, 2.98 ± 0.067, 2.98 ± 0.057 and 2.56 ± 0.086.
In the case of TVKENESDSKLQCHISG [UBP6], the protein stability index came out at 3.28 ± 0.098 (doa10∆), 3.3 ± 0.11 (pdr5∆), 3.05 ± 0.087 (san1∆) and 3.15 ± 0.1 (ubr1∆).
In turn, TVQLTFLIDVLKIYAQI [YCG1] displayed a protein stability index (doa10∆) of 1.58 ± 0.047, a protein stability index (pdr5∆) of 1.99 ± 0.05, a protein stability index (san1∆) of 1.74 ± 0.059 and a protein stability index (ubr1∆) of 1.7 ± 0.042.
Take TVRLVNLFSSTGFKGLL [SRB2]: the protein stability index is, setting by setting: (doa10∆) 2.31 ± 0.073; (pdr5∆) 2.73 ± 0.055; (san1∆) 2.76 ± 0.06; (ubr1∆) 2.9 ± 0.039.
In the case of TVTNSKFRSSILRKSFD [RPN2], the protein stability index reads like this: (doa10∆) 2.88 ± 0.1; (pdr5∆) 3.07 ± 0.091; (san1∆) 2.66 ± 0.094; (ubr1∆) 3.31 ± 0.091.
In turn, TYEAIEITDAYCFAKND [YMR129W/POM152] yielded a protein stability index (doa10∆) of 2.93 ± 0.061, a protein stability index (pdr5∆) of 2.66 ± 0.053, a protein stability index (san1∆) of 2.7 ± 0.05 and a protein stability index (ubr1∆) of 3.01 ± 0.045.
The sequence TYPAGFMDVITLDATNE [RPS4A] displayed a protein stability index (doa10∆) of 2.71 ± 0.085, a protein stability index (pdr5∆) of 3.11 ± 0.086, a protein stability index (san1∆) of 3.11 ± 0.062 and a protein stability index (ubr1∆) of 2.95 ± 0.063.
Regarding VACLFITISIHGKPTKG [SSN8], the protein stability index is, setting by setting: (doa10∆) 1.19 ± 0.061; (pdr5∆) 1.24 ± 0.061; (san1∆) 1.28 ± 0.16; (ubr1∆) 1.5 ± 0.11.
Turning to VAEKMNGCSGADVKGVC [RPT6], the protein stability index reads like this: (doa10∆) 3.41 ± 0.24; (san1∆) 3.19 ± 0.23; (ubr1∆) 3.07 ± 0.11.
Turning to VAESFTDEADSSMTEAS [SNF2], the protein stability index runs as follows: (doa10∆) 3.46 ± 0.12; (pdr5∆) 3.28 ± 0.11; (san1∆) 3.38 ± 0.053; (ubr1∆) 3.14 ± 0.096.
For VAGGKKALAIFVPVPSL [RPS7A], the protein stability index amounted to 2.49 ± 0.056 (doa10∆), 1.53 ± 0.047 (pdr5∆), 1.7 ± 0.088 (san1∆) and 1.54 ± 0.043 (ubr1∆).
